Assay results taken from US20190336574A1 (TRUSTEES OF PRINCETON UNIVERSITY, published 2019).

Columns and labels:
[1] = target: T1, murine SND1, wild type (mouse, UniProt Q78PY7 1-910); experiment: anti-MTDH co-IP from PyMT;Mtdh-/- MECs reconstituted with murine MTDH, western blot
T1 construct: Endogenous protein of murine PyMT mammary tumor cells; also called SND1 (in PyMT tumor cells); WT shRNA-resistant murine SND1
T1 sequence (looked up): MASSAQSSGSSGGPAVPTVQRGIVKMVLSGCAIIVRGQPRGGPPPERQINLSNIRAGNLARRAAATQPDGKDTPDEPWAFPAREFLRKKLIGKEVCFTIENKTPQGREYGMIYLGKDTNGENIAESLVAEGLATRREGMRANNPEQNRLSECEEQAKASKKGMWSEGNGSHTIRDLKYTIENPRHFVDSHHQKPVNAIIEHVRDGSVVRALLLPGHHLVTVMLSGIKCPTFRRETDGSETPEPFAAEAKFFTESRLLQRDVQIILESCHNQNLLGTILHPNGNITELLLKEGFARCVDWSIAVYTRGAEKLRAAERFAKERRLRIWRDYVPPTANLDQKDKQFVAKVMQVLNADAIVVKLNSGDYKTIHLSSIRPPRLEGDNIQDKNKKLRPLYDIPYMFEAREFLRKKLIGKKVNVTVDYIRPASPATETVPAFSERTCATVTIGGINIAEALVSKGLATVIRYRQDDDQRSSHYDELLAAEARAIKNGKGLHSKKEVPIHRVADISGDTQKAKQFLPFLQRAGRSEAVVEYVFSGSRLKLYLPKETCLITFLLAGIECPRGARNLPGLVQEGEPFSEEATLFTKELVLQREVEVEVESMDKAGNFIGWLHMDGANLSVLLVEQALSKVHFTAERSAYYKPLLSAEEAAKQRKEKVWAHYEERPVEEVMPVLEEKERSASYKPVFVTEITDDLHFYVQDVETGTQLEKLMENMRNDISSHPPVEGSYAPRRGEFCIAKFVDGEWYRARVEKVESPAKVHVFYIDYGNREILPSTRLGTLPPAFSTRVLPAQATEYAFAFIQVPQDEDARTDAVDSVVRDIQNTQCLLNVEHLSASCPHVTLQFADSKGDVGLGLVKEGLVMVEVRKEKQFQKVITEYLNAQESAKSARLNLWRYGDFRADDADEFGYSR
Description: (FIG. 8A, FIG. 8E) Lysates from PyMT;Mtdh−/− MECs reconstituted with vector control, WT or mutant murine MTDH were immunoprecipitated with anti-MTDH antibody and immunoblotted for indicated proteins. (FIG. 8B, FIG. 8F) Mammosphere assays were performed with PyMT;Mtdh−/− pMECs reconstituted with indicated Mtdh constructs. (FIG. 8C, FIG. 8D, FIG. 8G, FIG. 8H) In vivo tumor formation (FIG. 8C, FIG. 8G for tumor incidence; FIG. 8D, FIG. 8H for tumor volumes) were performed at limiting numbers using PyMT;Mtdh−/− pMECs reconstituted with indicated WT or mutant MTDH. *Note: mouse W391D MTDH corresponds to human W394D MTDH; and mouse W398D MTDH corresponds to human W401D MTDH. Statistics: (FIG. 8B, […]) Student's t-test. (FIG. 8C, FIG. 8G) Limiting dilution analysis. (FIG. 8D, FIG. 8H) Mann-Whitney test. Data represent mean±SEM. ***p<0.001, **p<0.01, *p<0.05.
Immunoprecipitation and western blot For immunoprecipitation (IP) experiments, cultured cells were washed in cold PBS and lysed in lysis buffer (20 mM Tris pH 7.4, 0.15 M NaCl, 1 mM EDTA, 1 mM EGTA, 1% Tx-100, 0.0025 M Na2P2O7, 1 mM α-glycerolphosphate, 1 mM Na3VO4, and 1 mM NaF) with an EDTA-free protease inhibitor mixture (Roche Applied Science) and PMSF. Cell lysates were then incubated on ice for 10 min, centrifuged, and precleared by incubating with protein A/G beads (Santa Cruz Biotechnology) for 1 h at 4° C. […]

[2] = target: T2, His-SND1 (16-339), SN1/2 domains, wild type (human, UniProt Q7KZF4 16-339); experiment: GST pull-down of His-SND1 (16-339), SDS-PAGE, Coomassie
T2 construct: also called His6-SND1 harboring the SN1/2 domains; not shown: N-terminal His tag (His6, His8 or His) with TEV site, pQlink vector
T2 sequence: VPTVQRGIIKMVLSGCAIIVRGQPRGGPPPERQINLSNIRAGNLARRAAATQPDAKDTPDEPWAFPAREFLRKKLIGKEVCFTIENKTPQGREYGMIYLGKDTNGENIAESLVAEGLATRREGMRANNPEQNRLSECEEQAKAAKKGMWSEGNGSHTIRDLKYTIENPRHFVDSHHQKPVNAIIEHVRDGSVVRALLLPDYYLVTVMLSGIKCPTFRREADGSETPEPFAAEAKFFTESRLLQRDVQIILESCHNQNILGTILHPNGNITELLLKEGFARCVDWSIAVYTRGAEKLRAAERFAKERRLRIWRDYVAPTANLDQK
Description: (§1) GST-Mediated Pull-Down Assay: ˜20 μg of GST-MTDH (different truncation forms and site mutants) was bound to 10 μl of glutathione resin via GST tag. The resin was washed with 200 μl assay buffer (25 mM Tris, PH8.0, 150 mM NaCl, 3 mM DTT) three times to remove the excess unbound protein. […] The mixture was washed with 200 μl assay buffer twice before examined by SDS-PAGE, and visualized by Coomassie blue staining. The experiments were repeated 3 times and the ratio of SND1 associated with GST-MTDH was analyzed by ImageJ.

[3] = target: T2, His-SND1 (16-339), SN1/2 domains, wild …; experiment: GST pull-down on glutathione resin, SDS-PAGE, Coomassie blue; normalised percentage of binding, mean±SEM of three experiments
Text: The proteins bound to GS4B were examined on SDS-PAGE and visualized by Coomassie blue staining. […] The bound proteins were examined as in (FIG. 22A). For both (FIG. 22A) and (FIG. 22B), experiments were repeated three times; representative results are shown. The normalized percentage of binding was averaged from three experiments; mean±SEM was shown below the data. (FIG. 22C) HEK293T cells were transfected with human HA-SND1, WT Myc-MTDH or Myc-MTDH with indicated single point mutation. Lysates were immunoprecipitated with anti-Myc antibody and immunoblotted with the indicated antibodies. (FIG. 22D) HEK293T cells were transfected with human Myc-MTDH, WT HA-SND1 or mutant HA-SND1 with indicated single point mutations or deletions. Lysates were immunoprecipitated with anti-Myc and immunoblotted with the indicated antibodies.
as §1
Identification of MTDH and SND1 mutants deficient in binding: To gain insight into how the interface characterized above contributes to MTDH-SND1 interaction, structure-guided mutagenesis studies were performed.

[4] = target: T3, HA-SND1, full-length human, wild type (human, UniProt Q7KZF4 1-910); experiment: competition in co-IP, 50 uM peptide; competitor MTDH
T3 construct: Full-length, HA-tagged; Expressed in HEK293T cells, tested in lysate; also called HA-tagged SND1; WT HA-SND1
T3 sequence: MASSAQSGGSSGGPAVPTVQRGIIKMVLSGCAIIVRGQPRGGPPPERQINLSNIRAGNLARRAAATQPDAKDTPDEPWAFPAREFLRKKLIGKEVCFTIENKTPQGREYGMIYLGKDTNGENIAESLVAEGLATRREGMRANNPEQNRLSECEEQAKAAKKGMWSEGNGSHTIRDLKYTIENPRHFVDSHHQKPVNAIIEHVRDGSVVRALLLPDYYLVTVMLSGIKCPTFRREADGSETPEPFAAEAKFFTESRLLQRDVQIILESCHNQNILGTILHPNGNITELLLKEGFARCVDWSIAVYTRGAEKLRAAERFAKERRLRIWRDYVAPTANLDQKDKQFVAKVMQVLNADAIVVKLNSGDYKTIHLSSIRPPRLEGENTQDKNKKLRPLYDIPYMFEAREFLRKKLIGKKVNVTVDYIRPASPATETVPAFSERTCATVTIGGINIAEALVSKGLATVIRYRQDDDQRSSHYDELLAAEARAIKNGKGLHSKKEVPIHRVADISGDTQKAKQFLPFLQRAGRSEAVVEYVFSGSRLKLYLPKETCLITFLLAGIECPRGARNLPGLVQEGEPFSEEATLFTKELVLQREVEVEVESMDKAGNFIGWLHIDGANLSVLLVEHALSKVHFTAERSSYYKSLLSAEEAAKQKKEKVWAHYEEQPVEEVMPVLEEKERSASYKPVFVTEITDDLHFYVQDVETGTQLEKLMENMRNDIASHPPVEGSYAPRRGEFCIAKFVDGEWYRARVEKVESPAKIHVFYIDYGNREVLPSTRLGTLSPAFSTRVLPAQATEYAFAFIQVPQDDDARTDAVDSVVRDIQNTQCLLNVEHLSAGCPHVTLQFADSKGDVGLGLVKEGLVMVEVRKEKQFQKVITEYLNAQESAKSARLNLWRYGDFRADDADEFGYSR
Description: 293 T cells were co-transfected with HA-SND1 and MYC-MTDH. After 48 hours, the cells were collected and subject to immunoprecipitation assay. Cell lysate was incubated with anti-HA antibody or IgG overnight followed by a two hour incubation with Protein A/G beads to pull down HA-SND1 protein. The beads were washed with lysis buffer and split into five fractions.
The elution fractions and beads were collected for western blot. (FIGS. 26C and 26D) Cell lyaste was split into 6 fractions. One of the fractions was incubated with IgG and the rest were incubated with anti-HA antibody plus either buffer or indicated peptides. After 24 hours, the lysate was incubated with Protein A/G beads then the beads was washed followed by wash buffer. 50 uM of peptides was used in all the assays.

B1: W398D* (other, mouse, UniProt Q80WJ7 1-579, looked up)
single chain: MAARSWQDELAQQAEEGSARLRELLSVGLGFLRTELGLDLGLEPKRYPGWVILVGTGALGLLLLFLLGYGWAAACAGARKKRRSPPRKREEAAPPTPAPDDLAQLKNLRSEEQKKKNRKKLPEKPKPNGRTVEVPEDEVVRNPRSITAKQAPETDKKNEKSKKNKKKSKSDAKAVQNSSRHDGKEVDEGAWETKISHREKRQQRKRDKVLTDSGSLDSTIPGIENIITVTTEQLTTASFPVGSKKNKGDSHLNVQVSNFKSGKGDSTLQVSSRLNENLTVNGGGWSEKSVKLSSQLSEEKWNSVPPASAGKRKTEPSAWTQDTGDTNANGKDWGRNWSDRSIFSGIGSTAEPVSQSTTSDYQWDVSRNQPYIDDEWSGLNGLSSADPSSDWNAPAEEDGNWVDEDRASLLKSQEPISNDQKVSDDDKEKGEGALPTGKSKKKKKKKKKQGEDNSHTQDTEDLEKDTREELPVNTSKARPKQEKACSLKTMSTSDPAEVLIKNSQPVKTLPPAISAEPSITLSKGDSDNSSSQVPPMLQDTDKPKSNAKQNSVPPSQTKSETNWESPKQIKKKKKARRET
notes: point mutant W398D, murine numbering; named in the legend's footnote and on the sheet; also called mouse W398D MTDH (corresponds to human W401D MTDH)
B1: no binding [1].

B2: GST-MTDH (364-582) W394A (other)
chain: YQWDVSRNQPYIDDEWSGLNGLSSADPNSDANAPAEEWGNWVDEERASLLKSQEPIPDDQKVSDDDKEKGEGALPTGKSKKKKKKKKKQGEDNSTAQDTEELEKEIREDLPVNTSKTRPKQEKAFSLKTISTSDPAEVLVKNSQPIKTLPPATSTEPSVILSKSDSDKSSSQVPPILQETDKSKSNTKQNSVPPSQTKSETSWESPKQIKKKKKARRET
notes: not shown: N-terminal GST tag with TEV site, pQlink vector
B2 was tested, and the binding result [2] was “no binding” and the “% Maximum binding” value [3] was 1%.

B3: Peptide-401A (PNSDWNAPAEEAGNW) (peptide)
peptide: PNSDWNAPAEEAGNW
notes: also called peptide comprising the single point mutation W401A
With B3 the “effectiveness in blocking the MTDH-SND1 interaction relative to the wild type peptide” value [4] was ~0.5 fold of wild type peptide.
